Square brackets hold non-standard residues; d marks the D form. Ends that are not written are not given here. pY = N[C@@H](Cc1ccc(OP(=O)(O)O)cc1)C(=O)O
Assays:
[1] = target: Fyn-SH3-SH2 (GST tag cleaved with thrombin); experiment: NECEEM
[2] = target: Fyn-SH3-SH2 (GST tag cleaved with thrombin); experiment: fluorescence polarisation
[3] = target: Fyn-SH3-SH2 (GST tag cleaved with thrombin); experiment: high-speed capillary electrophoresis

fluorescein-EEEEPQ[pY]EEIPIYL [Fluor-Fyn peptide (fluorescein-EEEEPQpYEEIPIYL)] was tested. Which t1/2 of the complex [1] did it give?
Its t1/2 of the complex is 101 s.

And the t1/2 of the complex [2]?
The t1/2 of the complex was 53.5 s.

And the t1/2 of the complex [3]?
Its t1/2 of the complex is 48.4 s.
